Measured values from publication PMC12714728 (npj Viruses, 2025).

Experiments:
[1] = biological target: cyclic peptide CP9; assay: SPR; conditions: both partners purified
[2] = biological target: cyclic peptide CP10; assay: SPR; conditions: both partners purified

B1: hemagglutinin (HA) ectodomain of A/New Caledonia/20/1999 (H1N1) (domain or fragment)
chain: not shown
modifications: biotin on the BirA site
Work on B1 yielded a koff [1] of 0.351 s⁻¹, a kon [1] of 108000 M⁻¹ s⁻¹ and a koff [2] of 0.378 s⁻¹. For the same binder, the kon [2] was 50300 M⁻¹ s⁻¹.
